Laboratory results from patent US20120122239A1.

Experiments:
[1] = target: glycosylated human proBNP (HyTest, Turku, Finland; Catalog No. 8GOB2) (human); assay: sandwich CMIA, capture 15C4, analyte 288.7 pM
[2] = target: human NT-pro B-type natriuretic peptide (HyTest, Turku, Finland; Catalog No. 8NT1) (human); assay: sandwich CMIA, capture 15C4, analyte 288.7 pM
[3] = target: human pro B-type natriuretic peptide (HyTest, Turku, Finland; Catalog No. 8PRO8) (human); assay: sandwich CMIA, capture 15C4, analyte 288.7 pM
human pro B-type natriuretic peptide (HyTest, Turku, Finland; Catalog No. 8PRO8) (human), sequence (chain, as listed by the source): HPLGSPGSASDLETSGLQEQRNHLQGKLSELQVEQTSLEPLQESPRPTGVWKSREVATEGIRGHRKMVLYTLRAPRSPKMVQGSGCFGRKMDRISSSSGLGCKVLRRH

[4] = target: glycosylated human proBNP (HyTest, Turku, Finland; Catalog No. 8GOB2) (human); assay: sandwich CMIA, capture 15F11, analyte 577.4 pM
[5] = target: human NT-pro B-type natriuretic peptide (HyTest, Turku, Finland; Catalog No. 8NT1) (human); assay: sandwich CMIA, capture 15F11, analyte 577.4 pM
[6] = target: human pro B-type natriuretic peptide (HyTest, Turku, Finland; Catalog No. 8PRO8) (human); assay: sandwich CMIA, capture 15F11, analyte 577.4 pM
[7] = target: glycosylated human proBNP (HyTest, Turku, Finland; Catalog No. 8GOB2) (human); assay: sandwich CMIA, capture 15C4, analyte 0.0 pM (blank)
[8] = target: human NT-pro B-type natriuretic peptide (HyTest, Turku, Finland; Catalog No. 8NT1) (human); assay: as above
[9] = target: human pro B-type natriuretic peptide (HyTest, Turku, Finland; Catalog No. 8PRO8) (human); assay: as above
[10] = target: glycosylated human proBNP (HyTest, Turku, Finland; Catalog No. 8GOB2) (human); assay: sandwich CMIA, capture 15F11, analyte 43.3 pM
[11] = target: human NT-pro B-type natriuretic peptide (HyTest, Turku, Finland; Catalog No. 8NT1) (human); assay: sandwich CMIA, capture 15F11, analyte 43.3 pM
[12] = target: human pro B-type natriuretic peptide (HyTest, Turku, Finland; Catalog No. 8PRO8) (human); assay: sandwich CMIA, capture 15F11, analyte 43.3 pM
[13] = target: glycosylated human proBNP (HyTest, Turku, Finland; Catalog No. 8GOB2) (human); assay: sandwich CMIA, capture 15C4, 288.7 pM, against human NT-proBNP
[14] = target: human pro B-type natriuretic peptide (HyTest, Turku, Finland; Catalog No. 8PRO8) (human); assay: as above
[15] = target: glycosylated human proBNP (HyTest, Turku, Finland; Catalog No. 8GOB2) (human); assay: sandwich CMIA, capture 15C4, analyte 43.3 pM
[16] = target: human NT-pro B-type natriuretic peptide (HyTest, Turku, Finland; Catalog No. 8NT1) (human); assay: sandwich CMIA, capture 15C4, analyte 43.3 pM
[17] = target: human pro B-type natriuretic peptide (HyTest, Turku, Finland; Catalog No. 8PRO8) (human); assay: sandwich CMIA, capture 15C4, analyte 43.3 pM
[18] = target: glycosylated human proBNP (HyTest, Turku, Finland; Catalog No. 8GOB2) (human); assay: sandwich CMIA, capture 15C4, 43.3 pM, against human NT-proBNP
[19] = target: human pro B-type natriuretic peptide (HyTest, Turku, Finland; Catalog No. 8PRO8) (human); assay: as above
[20] = target: glycosylated human proBNP (HyTest, Turku, Finland; Catalog No. 8GOB2) (human); assay: sandwich CMIA, capture 15F11, analyte 288.7 pM
[21] = target: human NT-pro B-type natriuretic peptide (HyTest, Turku, Finland; Catalog No. 8NT1) (human); assay: sandwich CMIA, capture 15F11, analyte 288.7 pM
[22] = target: human pro B-type natriuretic peptide (HyTest, Turku, Finland; Catalog No. 8PRO8) (human); assay: sandwich CMIA, capture 15F11, analyte 288.7 pM
[23] = target: glycosylated human proBNP (HyTest, Turku, Finland; Catalog No. 8GOB2) (human); assay: sandwich CMIA, capture 15F11, analyte 86.6 pM
[24] = target: human NT-pro B-type natriuretic peptide (HyTest, Turku, Finland; Catalog No. 8NT1) (human); assay: sandwich CMIA, capture 15F11, analyte 86.6 pM
[25] = target: human pro B-type natriuretic peptide (HyTest, Turku, Finland; Catalog No. 8PRO8) (human); assay: sandwich CMIA, capture 15F11, analyte 86.6 pM
[26] = target: glycosylated human proBNP (HyTest, Turku, Finland; Catalog No. 8GOB2) (human); assay: sandwich CMIA, capture 15C4, 86.6 pM, against human NT-proBNP
[27] = target: human pro B-type natriuretic peptide (HyTest, Turku, Finland; Catalog No. 8PRO8) (human); assay: as above
[28] = target: glycosylated human proBNP (HyTest, Turku, Finland; Catalog No. 8GOB2) (human); assay: sandwich CMIA, capture 15F11, analyte 0.0 pM (blank)
[29] = target: human NT-pro B-type natriuretic peptide (HyTest, Turku, Finland; Catalog No. 8NT1) (human); assay: as above
[30] = target: human pro B-type natriuretic peptide (HyTest, Turku, Finland; Catalog No. 8PRO8) (human); assay: as above
[31] = target: glycosylated human proBNP (HyTest, Turku, Finland; Catalog No. 8GOB2) (human); assay: sandwich CMIA, capture 15C4, analyte 577.4 pM
[32] = target: human NT-pro B-type natriuretic peptide (HyTest, Turku, Finland; Catalog No. 8NT1) (human); assay: sandwich CMIA, capture 15C4, analyte 577.4 pM
[33] = target: human pro B-type natriuretic peptide (HyTest, Turku, Finland; Catalog No. 8PRO8) (human); assay: sandwich CMIA, capture 15C4, analyte 577.4 pM
[34] = target: human pro B-type natriuretic peptide (HyTest, Turku, Finland; Catalog No. 8PRO8) (human); assay: sandwich CMIA, 15C4 (63-71) with 13G12 (13-20), against human NT-proBNP
[35] = target: glycosylated human proBNP (HyTest, Turku, Finland; Catalog No. 8GOB2) (human); assay: sandwich CMIA, capture 15C4, 577.4 pM, against human NT-proBNP
[36] = target: human pro B-type natriuretic peptide (HyTest, Turku, Finland; Catalog No. 8PRO8) (human); assay: as above
[37] = target: glycosylated human proBNP (HyTest, Turku, Finland; Catalog No. 8GOB2) (human); assay: sandwich CMIA, capture 15C4, analyte 86.6 pM
[38] = target: human NT-pro B-type natriuretic peptide (HyTest, Turku, Finland; Catalog No. 8NT1) (human); assay: sandwich CMIA, capture 15C4, analyte 86.6 pM
[39] = target: human pro B-type natriuretic peptide (HyTest, Turku, Finland; Catalog No. 8PRO8) (human); assay: sandwich CMIA, capture 15C4, analyte 86.6 pM
[40] = target: human pro B-type natriuretic peptide (HyTest, Turku, Finland; Catalog No. 8PRO8) (human); assay: sandwich CMIA, 15C4 (63-71) with 18H5 (13-20), against human NT-proBNP

human NT-pro B-type natriuretic peptide (HyTest, Turku, Finland; Catalog No. 8NT1) (human), sequence (chain, as listed by the source): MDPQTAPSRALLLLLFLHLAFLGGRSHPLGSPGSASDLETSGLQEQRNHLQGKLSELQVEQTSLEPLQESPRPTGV

Row | Analyte rlus [1] | Analyte rlus [2] | Analyte rlus [4] | Analyte rlus [5] | Analyte rlus [6] | Analyte rlus [7] | Analyte rlus [8] | Analyte rlus [9] | Analyte rlus [10] | Analyte rlus [11] | Analyte rlus [12] | % Cross-reactivity [13] | Analyte rlus [15] | Analyte rlus [16] | Analyte rlus [17] | % Cross-reactivity [18] | % Cross-reactivity [19] | Analyte rlus [20] | Analyte rlus [21] | Analyte rlus [22] | Substance | also measured
1 | 967 rlus | 131000 rlus | 778 rlus | 805 rlus | 1080 rlus | 892 rlus | 892 rlus | 892 rlus | 798 rlus | 777 rlus | 800 rlus | 0.1% | 905 rlus | 10300 rlus | 2220 rlus | 0.1% | 14.1% | 831 rlus | 820 rlus | 920 rlus | anti-human NT-proBNP/anti-human proBNP labeled monoclonal antibody 13G12 (HyTest, Turku, Finland) | Analyte rlus [3]: 16700 rlus; % Cross-reactivity [14]: 12.1%; Analyte rlus [23]: 767 rlus; Analyte rlus [24]: 761 rlus; Analyte rlus [25]: 802 rlus; % Cross-reactivity [26]: 0.1%; % Cross-reactivity [27]: 12.9%; Analyte rlus [28]: 841 rlus; Analyte rlus [29]: 841 rlus; Analyte rlus [30]: 841 rlus; Analyte rlus [31]: 1240 rlus; Analyte rlus [32]: 309000 rlus; Analyte rlus [33]: 37200 rlus; % Cross-reactivity [34]: 10%; % Cross-reactivity [35]: 0.1%; % Cross-reactivity [36]: 11.8%; Analyte rlus [37]: 912 rlus; Analyte rlus [38]: 25600 rlus; Analyte rlus [39]: 4080 rlus
2 | 1230 rlus | 162000 rlus | 754 rlus | 664 rlus | 1440 rlus | 704 rlus | 704 rlus | 704 rlus | 618 rlus | 621 rlus | 628 rlus | 0.3% | 756 rlus | 18000 rlus | 3380 rlus | 0.3% | 15.5% | 663 rlus | 708 rlus | 949 rlus | anti-human NT-proBNP/anti-human proBNP labeled monoclonal antibody 18H5 (HyTest, Turku, Finland) | % Cross-reactivity [40]: 10%; Analyte rlus [23]: 737 rlus; Analyte rlus [24]: 636 rlus; Analyte rlus [25]: 664 rlus; % Cross-reactivity [26]: 0.2%; % Cross-reactivity [27]: 15.3%; Analyte rlus [28]: 626 rlus; Analyte rlus [29]: 626 rlus; Analyte rlus [30]: 626 rlus; Analyte rlus [31]: 1580 rlus; Analyte rlus [32]: 337000 rlus; Analyte rlus [33]: 46500 rlus; % Cross-reactivity [35]: 0.3%; % Cross-reactivity [36]: 13.6%; Analyte rlus [37]: 783 rlus; Analyte rlus [38]: 39100 rlus; Analyte rlus [39]: 6590 rlus
